Assay [1] has as its target cell surface receptor composed of FGFR1c and co-receptor beta-Klotho (KLB) (human, UniProt P11362 22-822; Q86Z14 1-1044). As to the kind of experiment: cell-based or functional assay. On Mean E max, Luciferase reporter gene assay: reference of the scale not given here.
The target in a further assay is T1, human beta-Klotho (KLB) (human, UniProt Q86Z14 53-997).
T1 construct: Bought protein; also called human KLB; β-Klotho
T1 sequence (looked up): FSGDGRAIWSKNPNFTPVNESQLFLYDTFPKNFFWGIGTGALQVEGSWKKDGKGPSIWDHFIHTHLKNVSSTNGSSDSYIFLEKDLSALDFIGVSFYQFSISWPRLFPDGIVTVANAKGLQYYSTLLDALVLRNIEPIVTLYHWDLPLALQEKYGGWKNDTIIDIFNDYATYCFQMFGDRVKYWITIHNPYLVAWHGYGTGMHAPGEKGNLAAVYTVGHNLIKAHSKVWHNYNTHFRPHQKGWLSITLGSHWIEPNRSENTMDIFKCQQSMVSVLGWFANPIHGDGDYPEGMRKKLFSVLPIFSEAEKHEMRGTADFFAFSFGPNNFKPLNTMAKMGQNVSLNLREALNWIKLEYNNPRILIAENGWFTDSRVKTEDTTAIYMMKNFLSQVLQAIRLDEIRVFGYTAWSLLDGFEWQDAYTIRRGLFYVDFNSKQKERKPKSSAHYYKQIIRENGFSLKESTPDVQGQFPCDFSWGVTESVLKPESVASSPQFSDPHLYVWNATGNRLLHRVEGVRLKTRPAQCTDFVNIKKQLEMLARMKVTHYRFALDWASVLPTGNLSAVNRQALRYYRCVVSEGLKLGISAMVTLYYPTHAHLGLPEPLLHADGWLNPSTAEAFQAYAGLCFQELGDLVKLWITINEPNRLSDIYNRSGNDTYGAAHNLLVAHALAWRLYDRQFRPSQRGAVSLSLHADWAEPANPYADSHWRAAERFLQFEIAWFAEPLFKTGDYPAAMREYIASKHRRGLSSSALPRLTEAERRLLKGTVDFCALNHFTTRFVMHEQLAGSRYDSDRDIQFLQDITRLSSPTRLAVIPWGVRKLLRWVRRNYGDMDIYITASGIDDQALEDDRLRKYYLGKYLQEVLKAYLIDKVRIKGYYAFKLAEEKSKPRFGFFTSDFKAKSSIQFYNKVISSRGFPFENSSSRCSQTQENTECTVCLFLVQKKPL
Nature of the assay: BLI off-rate screening (Octet), crude supernatant.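 Further: supernatants tested at 25 µg/mL, dissociation from biosensors recorded in D-PBS with 0.1% BSA over 1800 s.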 For orientation: In BLI a coated tip is dipped into the sample, and binding shifts an interference pattern.

cell surface receptor composed of FGFR1c and co-receptor beta-Klotho (KLB), sequence (P11362 22-822, chain 1 of 2): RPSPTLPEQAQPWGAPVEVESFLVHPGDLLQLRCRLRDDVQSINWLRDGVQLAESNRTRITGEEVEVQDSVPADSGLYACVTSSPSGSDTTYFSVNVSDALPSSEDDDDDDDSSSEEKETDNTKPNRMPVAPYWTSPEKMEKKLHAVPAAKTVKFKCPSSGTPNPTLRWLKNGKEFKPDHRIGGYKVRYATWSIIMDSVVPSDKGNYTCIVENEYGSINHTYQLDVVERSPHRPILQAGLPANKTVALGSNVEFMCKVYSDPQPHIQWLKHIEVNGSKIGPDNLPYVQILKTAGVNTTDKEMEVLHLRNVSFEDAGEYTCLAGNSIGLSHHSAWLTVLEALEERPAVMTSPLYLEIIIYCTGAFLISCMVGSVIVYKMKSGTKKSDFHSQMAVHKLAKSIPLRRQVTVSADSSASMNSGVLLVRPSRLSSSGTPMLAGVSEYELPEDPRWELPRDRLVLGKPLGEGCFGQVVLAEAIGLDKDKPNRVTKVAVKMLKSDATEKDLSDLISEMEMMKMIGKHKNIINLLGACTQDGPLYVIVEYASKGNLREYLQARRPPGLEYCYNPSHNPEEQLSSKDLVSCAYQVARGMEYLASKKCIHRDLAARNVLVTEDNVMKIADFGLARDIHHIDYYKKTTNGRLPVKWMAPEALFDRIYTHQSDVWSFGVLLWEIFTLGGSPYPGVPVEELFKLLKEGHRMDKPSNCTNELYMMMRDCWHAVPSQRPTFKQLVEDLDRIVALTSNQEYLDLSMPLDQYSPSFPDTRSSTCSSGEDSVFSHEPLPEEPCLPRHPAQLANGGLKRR
cell surface receptor composed of FGFR1c and co-receptor beta-Klotho (KLB), sequence (Q86Z14 whole entry, chain 2 of 2): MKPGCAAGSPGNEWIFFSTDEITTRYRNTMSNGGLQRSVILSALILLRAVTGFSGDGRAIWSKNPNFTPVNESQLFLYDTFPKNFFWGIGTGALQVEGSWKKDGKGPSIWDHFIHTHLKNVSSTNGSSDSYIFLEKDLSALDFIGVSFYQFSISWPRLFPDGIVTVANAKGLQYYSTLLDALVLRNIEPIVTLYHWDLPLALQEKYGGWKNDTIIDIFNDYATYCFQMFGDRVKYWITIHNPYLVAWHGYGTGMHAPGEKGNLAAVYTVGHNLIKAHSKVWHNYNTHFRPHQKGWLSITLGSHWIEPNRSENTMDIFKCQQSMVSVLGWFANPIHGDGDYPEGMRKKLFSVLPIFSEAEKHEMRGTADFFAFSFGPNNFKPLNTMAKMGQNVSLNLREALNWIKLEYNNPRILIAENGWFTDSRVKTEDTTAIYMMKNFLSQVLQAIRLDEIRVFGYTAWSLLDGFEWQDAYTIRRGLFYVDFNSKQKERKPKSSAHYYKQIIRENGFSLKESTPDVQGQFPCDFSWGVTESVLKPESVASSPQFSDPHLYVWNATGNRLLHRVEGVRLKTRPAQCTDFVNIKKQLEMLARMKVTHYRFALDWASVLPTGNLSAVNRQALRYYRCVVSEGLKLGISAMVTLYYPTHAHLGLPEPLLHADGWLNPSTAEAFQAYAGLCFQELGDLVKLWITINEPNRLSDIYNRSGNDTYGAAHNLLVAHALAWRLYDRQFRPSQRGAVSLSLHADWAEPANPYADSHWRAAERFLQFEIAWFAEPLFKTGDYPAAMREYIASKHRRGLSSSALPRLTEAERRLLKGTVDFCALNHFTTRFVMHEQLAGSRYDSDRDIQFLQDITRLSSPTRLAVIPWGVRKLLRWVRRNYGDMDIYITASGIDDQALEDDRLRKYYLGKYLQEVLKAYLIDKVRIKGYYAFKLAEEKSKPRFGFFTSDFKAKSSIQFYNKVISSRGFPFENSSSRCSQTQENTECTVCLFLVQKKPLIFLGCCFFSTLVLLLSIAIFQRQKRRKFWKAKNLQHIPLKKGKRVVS

B1: 16H7 light chain variant S94T (antibody, IgG4, V domains shown)
VH: not shown
VL: SYVLTQPPSVSVAPGQTARITCGGNNIGSESVHWYQQKPGQAPVLVVYDDSDRPSGIPERFSGSNSGNTATLTISRVEAGDEADYYCQVWDGNTDHVVFGGGTKLTVLG
notes: IgG4 backbone
The term koff denotes the rate constant with which the complex falls apart. A lower koff goes with a long-lived complex. Take B1: in assay [1], the “Mean E max, Luciferase reporter gene assay” value (“Mean E max” for short) worked out at 109% and the “Mean EC50, Luciferase reporter gene assay” value (“Mean EC50” for short) worked out at 0.116 nM. The molecule further yielded a koff with human beta-Klotho (KLB) of 3.2e-05 s⁻¹.

B2: 16H7 light chain variant V32Y (antibody, IgG4, V domains shown)
VH: not shown
VL: SYVLTQPPSVSVAPGQTARITCGGNNIGSESYHWYQQKPGQAPVLVVYDDSDRPSGIPERFSGSNSGNTATLTISRVEAGDEADYYCQVWDGNSDHVVFGGGTKLTVLG
notes: IgG4 backbone
In the case of B2, in assay [1], the “Mean E max” value was 106% and the “Mean EC50” value is 0.103 nM. For the same molecule, the koff in the assay with human beta-Klotho (KLB) worked out at 1.9e-05 s⁻¹.

B3: 16H7 light chain variant S94Y (antibody, IgG4, V domains shown)
VH: not shown
VL: SYVLTQPPSVSVAPGQTARITCGGNNIGSESVHWYQQKPGQAPVLVVYDDSDRPSGIPERFSGSNSGNTATLTISRVEAGDEADYYCQVWDGNYDHVVFGGGTKLTVLG
notes: IgG4 backbone
Regarding B3, in assay [1], the “Mean E max” value was 100% and the “Mean EC50” value is 0.098 nM. This molecule also showed a koff with human beta-Klotho (KLB) of 6.2e-05 s⁻¹.

B4: 16H7 light chain variant S94W (antibody, IgG4, V domains shown)
VH: not shown
VL: SYVLTQPPSVSVAPGQTARITCGGNNIGSESVHWYQQKPGQAPVLVVYDDSDRPSGIPERFSGSNSGNTATLTISRVEAGDEADYYCQVWDGNWDHVVFGGGTKLTVLG
notes: IgG4 backbone
As to B4, in assay [1], the “Mean E max” value was found to be 103% and the “Mean EC50” value turned out to be 0.159 nM. This molecule also registered a koff with human beta-Klotho (KLB) of 4.3e-05 s⁻¹.

B5: 16H7 light chain variant V32Q (antibody, IgG4, V domains shown)
VH: not shown
VL: SYVLTQPPSVSVAPGQTARITCGGNNIGSESQHWYQQKPGQAPVLVVYDDSDRPSGIPERFSGSNSGNTATLTISRVEAGDEADYYCQVWDGNSDHVVFGGGTKLTVLG
notes: IgG4 backbone
In the case of B5, in assay [1], the “Mean E max” value came to 91% and the “Mean EC50” value came out at 0.166 nM. This molecule yielded a koff with human beta-Klotho (KLB) of 0.00025 s⁻¹.

B6: 16H7 light chain variant V32S (antibody, IgG4, V domains shown)
VH: not shown
VL: SYVLTQPPSVSVAPGQTARITCGGNNIGSESSHWYQQKPGQAPVLVVYDDSDRPSGIPERFSGSNSGNTATLTISRVEAGDEADYYCQVWDGNSDHVVFGGGTKLTVLG
notes: IgG4 backbone
For the molecule B6, in assay [1], the “Mean E max” value turned out to be 102% and the “Mean EC50” value was found to be 0.124 nM. The molecule further showed a koff in the assay with human beta-Klotho (KLB) of 5.1e-05 s⁻¹.

B7: 16H7 light chain variant V32F (antibody, IgG4, V domains shown)
VH: not shown
VL: SYVLTQPPSVSVAPGQTARITCGGNNIGSESFHWYQQKPGQAPVLVVYDDSDRPSGIPERFSGSNSGNTATLTISRVEAGDEADYYCQVWDGNSDHVVFGGGTKLTVLG
notes: IgG4 backbone
With B7, in assay [1], the “Mean E max” value turned out to be 100% and the “Mean EC50” value turned out to be 0.102 nM. In the assay with human beta-Klotho (KLB), this molecule came in with a koff of 4.1e-05 s⁻¹.

B8: 16H7 light chain variant V32I (antibody, IgG4, V domains shown)
VH: not shown
VL: SYVLTQPPSVSVAPGQTARITCGGNNIGSESIHWYQQKPGQAPVLVVYDDSDRPSGIPERFSGSNSGNTATLTISRVEAGDEADYYCQVWDGNSDHVVFGGGTKLTVLG
notes: IgG4 backbone
For B8, in assay [1], the “Mean E max” value was determined as 113% and the “Mean EC50” value was 0.133 nM. For the same molecule, the koff in the assay with human beta-Klotho (KLB) was determined as 2e-05 s⁻¹.

B9: 16H7 light chain variant V32L (antibody, IgG4, V domains shown)
VH: not shown
VL: SYVLTQPPSVSVAPGQTARITCGGNNIGSESLHWYQQKPGQAPVLVVYDDSDRPSGIPERFSGSNSGNTATLTISRVEAGDEADYYCQVWDGNSDHVVFGGGTKLTVLG
notes: IgG4 backbone
For B9, in assay [1], the “Mean E max” value amounted to 104% and the “Mean EC50” value stood at 0.126 nM. In the assay with human beta-Klotho (KLB), this molecule registered a koff of 4.9e-05 s⁻¹.

B10: 16H7 light chain variant V32W (antibody, IgG4, V domains shown)
VH: not shown
VL: SYVLTQPPSVSVAPGQTARITCGGNNIGSESWHWYQQKPGQAPVLVVYDDSDRPSGIPERFSGSNSGNTATLTISRVEAGDEADYYCQVWDGNSDHVVFGGGTKLTVLG
notes: IgG4 backbone
Take B10: in assay [1], the “Mean E max” value turned out to be 102% and the “Mean EC50” value stood at 0.145 nM. In the assay with human beta-Klotho (KLB), this molecule registered an off-rate (koff) of 0.00023 s⁻¹.

B11: 16H7 light chain variant S94V (antibody, IgG4, V domains shown)
VH: not shown
VL: SYVLTQPPSVSVAPGQTARITCGGNNIGSESVHWYQQKPGQAPVLVVYDDSDRPSGIPERFSGSNSGNTATLTISRVEAGDEADYYCQVWDGNVDHVVFGGGTKLTVLG
notes: IgG4 backbone
In the case of B11, in assay [1], the “Mean E max” value was 108% and the “Mean EC50” value was found to be 0.119 nM. The same molecule came in with a koff in the assay with human beta-Klotho (KLB) of 2.8e-05 s⁻¹.

B12: 16H7 light chain variant V97C (antibody, IgG4, V domains shown)
VH: not shown
VL: SYVLTQPPSVSVAPGQTARITCGGNNIGSESVHWYQQKPGQAPVLVVYDDSDRPSGIPERFSGSNSGNTATLTISRVEAGDEADYYCQVWDGNSDHCVFGGGTKLTVLG
notes: IgG4 backbone
Regarding B12, in assay [1], the “Mean E max” value turned out to be 104% and the “Mean EC50” value amounted to 0.19 nM. In addition, in the assay with human beta-Klotho (KLB), the koff was found to be 0.00023 s⁻¹.

B13: 16H7 light chain variant V32G (antibody, IgG4, V domains shown)
VH: not shown
VL: SYVLTQPPSVSVAPGQTARITCGGNNIGSESGHWYQQKPGQAPVLVVYDDSDRPSGIPERFSGSNSGNTATLTISRVEAGDEADYYCQVWDGNSDHVVFGGGTKLTVLG
notes: IgG4 backbone
For B13, in assay [1], the “Mean E max” value came to 103% and the “Mean EC50” value was found to be 0.24 nM. For the same molecule, in the assay with human beta-Klotho (KLB), the koff is 6.5e-05 s⁻¹.

B14: 16H7 light chain variant V32A (antibody, IgG4, V domains shown)
VH: not shown
VL: SYVLTQPPSVSVAPGQTARITCGGNNIGSESAHWYQQKPGQAPVLVVYDDSDRPSGIPERFSGSNSGNTATLTISRVEAGDEADYYCQVWDGNSDHVVFGGGTKLTVLG
notes: IgG4 backbone
Turning to B14, in assay [1], the “Mean E max” value is 108% and the “Mean EC50” value is 0.144 nM. Further, the koff with human beta-Klotho (KLB) was determined as 4.7e-05 s⁻¹.

B15: 16H7 light chain variant V32D (antibody, IgG4, V domains shown)
VH: not shown
VL: SYVLTQPPSVSVAPGQTARITCGGNNIGSESDHWYQQKPGQAPVLVVYDDSDRPSGIPERFSGSNSGNTATLTISRVEAGDEADYYCQVWDGNSDHVVFGGGTKLTVLG
notes: IgG4 backbone
For B15, in assay [1], the “Mean E max” value was determined as 92% and the “Mean EC50” value came out at 0.141 nM. In addition, the koff in the assay with human beta-Klotho (KLB) worked out at 0.00025 s⁻¹.

B16: 16H7 light chain variant V32H (antibody, IgG4, V domains shown)
VH: not shown
VL: SYVLTQPPSVSVAPGQTARITCGGNNIGSESHHWYQQKPGQAPVLVVYDDSDRPSGIPERFSGSNSGNTATLTISRVEAGDEADYYCQVWDGNSDHVVFGGGTKLTVLG
notes: IgG4 backbone
Regarding B16, in assay [1], the “Mean E max” value was 100% and the “Mean EC50” value worked out at 0.147 nM. In the assay with human beta-Klotho (KLB), this molecule had a koff of 7.3e-05 s⁻¹.

B17: 16H7 light chain variant V32C (antibody, IgG4, V domains shown)
VH: not shown
VL: SYVLTQPPSVSVAPGQTARITCGGNNIGSESCHWYQQKPGQAPVLVVYDDSDRPSGIPERFSGSNSGNTATLTISRVEAGDEADYYCQVWDGNSDHVVFGGGTKLTVLG
notes: IgG4 backbone
As to B17, in assay [1], the “Mean E max” value was found to be 99% and the “Mean EC50” value came out at 0.108 nM. The molecule also had a koff with human beta-Klotho (KLB) of 5.1e-06 s⁻¹.

B18: 16H7 light chain variant V32K (antibody, IgG4, V domains shown)
VH: not shown
VL: SYVLTQPPSVSVAPGQTARITCGGNNIGSESKHWYQQKPGQAPVLVVYDDSDRPSGIPERFSGSNSGNTATLTISRVEAGDEADYYCQVWDGNSDHVVFGGGTKLTVLG
notes: IgG4 backbone
For the molecule B18, in assay [1], the “Mean E max” value was found to be 101% and the “Mean EC50” value turned out to be 0.158 nM. In addition, in the assay with human beta-Klotho (KLB), the koff amounted to 2.6e-05 s⁻¹.

B19: 16H7 light chain variant V32M (antibody, IgG4, V domains shown)
VH: not shown
VL: SYVLTQPPSVSVAPGQTARITCGGNNIGSESMHWYQQKPGQAPVLVVYDDSDRPSGIPERFSGSNSGNTATLTISRVEAGDEADYYCQVWDGNSDHVVFGGGTKLTVLG
notes: IgG4 backbone
B19: in assay [1], the “Mean E max” value came out at 103% and the “Mean EC50” value is 0.135 nM. The koff in the assay with human beta-Klotho (KLB) worked out at 9.5e-05 s⁻¹.

B20: 16H7 light chain variant V32T (antibody, IgG4, V domains shown)
VH: not shown
VL: SYVLTQPPSVSVAPGQTARITCGGNNIGSESTHWYQQKPGQAPVLVVYDDSDRPSGIPERFSGSNSGNTATLTISRVEAGDEADYYCQVWDGNSDHVVFGGGTKLTVLG
notes: IgG4 backbone
On to B20, for which, in assay [1], the “Mean E max” value was 107% and the “Mean EC50” value is 0.107 nM. This molecule came in with a koff with human beta-Klotho (KLB) of 7e-05 s⁻¹.

B21: 16H7 light chain variant V32N (antibody, IgG4, V domains shown)
VH: not shown
VL: SYVLTQPPSVSVAPGQTARITCGGNNIGSESNHWYQQKPGQAPVLVVYDDSDRPSGIPERFSGSNSGNTATLTISRVEAGDEADYYCQVWDGNSDHVVFGGGTKLTVLG
notes: IgG4 backbone
Consider B21, for which, in assay [1], the “Mean E max” value was 104% and the “Mean EC50” value worked out at 0.123 nM. In addition, in the assay with human beta-Klotho (KLB), the koff is 4.4e-05 s⁻¹.

The record behind these values is US20220010021A1 (Sanofi, published 2022).
